Key:
porcine fibrin (porcine) = porcine fibrin (porcine) (UniProt P14460)
human fibrin (human) = human fibrin (human) (UniProt P02671)
Chain of UniProt P02671 (P02671 36-866, chain 1 of 3): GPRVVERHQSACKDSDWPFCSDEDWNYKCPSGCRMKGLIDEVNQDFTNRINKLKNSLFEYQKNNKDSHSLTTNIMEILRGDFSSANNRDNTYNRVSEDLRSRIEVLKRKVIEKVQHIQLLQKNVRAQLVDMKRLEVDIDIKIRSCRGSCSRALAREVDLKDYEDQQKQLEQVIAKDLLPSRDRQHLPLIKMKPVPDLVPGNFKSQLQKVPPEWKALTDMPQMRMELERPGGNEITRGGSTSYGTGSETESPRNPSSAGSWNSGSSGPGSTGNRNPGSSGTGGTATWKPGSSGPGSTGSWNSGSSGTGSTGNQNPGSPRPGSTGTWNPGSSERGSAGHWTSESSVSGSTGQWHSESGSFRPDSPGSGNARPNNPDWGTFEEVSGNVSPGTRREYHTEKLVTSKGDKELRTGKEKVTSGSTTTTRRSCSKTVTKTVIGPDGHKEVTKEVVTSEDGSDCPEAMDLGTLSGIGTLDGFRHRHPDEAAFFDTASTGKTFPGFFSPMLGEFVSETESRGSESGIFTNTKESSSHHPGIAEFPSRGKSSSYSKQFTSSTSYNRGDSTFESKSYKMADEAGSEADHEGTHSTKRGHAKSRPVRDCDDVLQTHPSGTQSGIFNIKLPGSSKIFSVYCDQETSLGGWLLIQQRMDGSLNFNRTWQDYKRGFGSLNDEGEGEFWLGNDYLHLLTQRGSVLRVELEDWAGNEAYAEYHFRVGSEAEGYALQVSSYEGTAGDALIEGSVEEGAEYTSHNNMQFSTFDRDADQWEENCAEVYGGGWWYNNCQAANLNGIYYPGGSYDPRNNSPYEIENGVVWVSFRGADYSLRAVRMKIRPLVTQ
Chain of UniProt P02671 (P02675 45-491, chain 2 of 3, further chain): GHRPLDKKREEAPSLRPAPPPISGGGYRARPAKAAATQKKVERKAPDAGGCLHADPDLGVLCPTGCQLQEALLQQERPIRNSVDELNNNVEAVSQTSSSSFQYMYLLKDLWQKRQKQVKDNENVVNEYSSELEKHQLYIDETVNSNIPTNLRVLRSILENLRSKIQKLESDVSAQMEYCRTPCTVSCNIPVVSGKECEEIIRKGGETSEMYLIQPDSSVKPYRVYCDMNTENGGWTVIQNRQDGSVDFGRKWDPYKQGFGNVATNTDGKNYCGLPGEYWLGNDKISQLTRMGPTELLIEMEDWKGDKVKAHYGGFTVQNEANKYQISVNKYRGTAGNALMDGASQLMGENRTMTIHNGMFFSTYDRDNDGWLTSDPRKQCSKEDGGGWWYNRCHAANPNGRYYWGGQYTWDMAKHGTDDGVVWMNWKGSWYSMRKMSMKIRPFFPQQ
Chain of UniProt P02671 (P02679 other isoform, or with tags, fused parts or gaps, chain 3 of 3, further chain): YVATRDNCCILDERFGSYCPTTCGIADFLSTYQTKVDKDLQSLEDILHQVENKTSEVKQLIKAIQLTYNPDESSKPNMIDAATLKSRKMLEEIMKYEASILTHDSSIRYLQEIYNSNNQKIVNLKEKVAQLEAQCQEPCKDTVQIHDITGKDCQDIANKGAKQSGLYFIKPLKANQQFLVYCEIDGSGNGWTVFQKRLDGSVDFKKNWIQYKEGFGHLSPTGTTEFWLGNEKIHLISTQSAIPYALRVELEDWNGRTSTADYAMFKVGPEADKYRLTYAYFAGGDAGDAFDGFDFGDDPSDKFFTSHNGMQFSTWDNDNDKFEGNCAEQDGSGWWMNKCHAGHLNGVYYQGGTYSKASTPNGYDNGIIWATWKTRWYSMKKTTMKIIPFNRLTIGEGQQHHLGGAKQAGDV

Q: “human plasmin (from UniProt P00747 20-580) (enzyme)” was tested. Which K m of overall fibrin breakdown by plasmin (clot lysis time by turbidity against fibrinogen 0 to 5 µM, batroxobin clots, 5 nM active plasmin) (porcine fibrin (porcine)) did it give?
A: 1.3 µM

Q: And the K m of overall fibrin breakdown by plasmin (clot lysis time by turbidity against fibrinogen 0 to 5 µM, batroxobin clots, 5 nM active plasmin) (human fibrin (human))?
A: 1.1 µM

Q: Which K m of overall fibrin breakdown by plasmin (clot lysis time by turbidity against fibrinogen 0 to 5 µM, batroxobin clots, 5 nM active plasmin) (porcine fibrin (porcine)) does the source give for “porcine plasmin (from UniProt P06867 20-809; P06867 20-809) (enzyme)” here?
A: 4.9 µM

Q: What about the K m of overall fibrin breakdown by plasmin (clot lysis time by turbidity against fibrinogen 0 to 5 µM, batroxobin clots, 5 nM active plasmin) (human fibrin (human)) of the same substance?
A: 3.1 µM

From article PMC12817190
